Test results from patent US20260116991A1 (HAINAN SIMCERE ZAIMING PHARMACEUTICAL, published 2026).
Numbering of substitutions follows the chain as printed. Values belong to the binder of their own block, whether it stands above or below them.

How the values were obtained:
monkey GPC3-His protein [1] = molecular target: T1, monkey GPC3-His protein (monkey); assay: ELISA, monkey GPC3-His coated; antibody 0.011 nM
T1 construct: Bought protein; also called monkey GPC3 protein
Experimental: (§1) The specific method is described as follows: The antigen protein was diluted with PBS to a final concentration of 1 μg/mL, and the diluent was added to a 96-well ELISA plate at 50 μL/well. The plate was sealed with a plastic film and incubated at 4° C. overnight, washed twice with PBS the next day, and a blocking solution [PBS+2% (w/w) BSA] was added for blocking at room temperature for 2 h. […] After incubation at 37° C. for 2 h, the plate was washed 3 times with PBS. A horseradish peroxidase (HRP)-labeled secondary antibody (purchased from Merck, Cat. No. AP113P) was added for incubation at 37° C. for 1 h, and the plate was washed 5 times with PBS. A TMB substrate was added at 50 μL/well for incubation at room temperature for 10 min, then a stop solution (1.0M HCl) was added at 50 μL/well.

monkey GPC3-His protein [2] = molecular target: T1, monkey GPC3-His protein; assay: ELISA, monkey GPC3-His coated; antibody 0.0004 nM
Experimental: as §1

monkey GPC3-His protein [3] = molecular target: T1, monkey GPC3-His protein; assay: ELISA, monkey GPC3-His coated; antibody 34.72 nM
Experimental: as §1

monkey GPC3-His protein [4] = molecular target: T1, monkey GPC3-His protein; assay: ELISA, monkey GPC3-His coated; antibody 0.056 nM
Experimental: as §1

monkey GPC3-His protein [5] = molecular target: T1, monkey GPC3-His protein; assay: ELISA, monkey GPC3-His coated; antibody 0.002 nM
Experimental: as §1

monkey GPC3-His protein [6] = molecular target: T1, monkey GPC3-His protein; assay: ELISA, monkey GPC3-His coated; antibody 0.28 nM
Experimental: as §1

monkey GPC3-His protein [7] = molecular target: T1, monkey GPC3-His protein; assay: ELISA, monkey GPC3-His coated; antibody 6.94 nM
Experimental: as §1

GPC3 on HepG2 cells = molecular target: T2, GPC3 on HepG2 cells (human, UniProt P51654 25-554); assay: FACS on HepG2 cells
T2 construct: whole, on cells; also called glypican-3
Experimental: The desired cells were expanded to a logarithmic growth phase in a T-75 cell culture flask, the medium was removed by pipetting, and the cells were washed twice with a PBS buffer, and digested with trypsin. Then a complete medium was added to stop the digestion, and the cells were blown into a single cell suspension. After counting, the cells were centrifuged, and the cell pellet was resuspended with an FACS buffer (PBS+2% fetal bovine serum) to 2×10⁶ cells/mL. The cell resuspension solution was added to a 96-well FACS reaction plate at 50 μl/well, and a humanized antibody sample to be tested was added at 50 μl/well for incubation at 4° C. for 1 h. […] After the plate was centrifuged and washed 3 times with a PBS buffer, 100 μl of the resulting solution was assayed and analyzed by FACS (FACS Canto™, purchased from BD Biosciences). Data analysis was performed by software (FlowJo) to obtain the mean fluorescence intensity (MFI) of the cells. Then, analysis was performed by software (GraphPad Prism8), data were fitted, and EC₅₀ values were calculated.

monkey GPC3-His protein [8] = molecular target: T1, monkey GPC3-His protein; assay: ELISA, monkey GPC3-His coated; antibody 1.39 nM
Experimental: as §1

monkey GPC3-His protein [9] = molecular target: T1, monkey GPC3-His protein; assay: ELISA, monkey GPC3-His coated; antibody 13.33 nM
Experimental: as §1

murine GPC3-his protein [10] = molecular target: T3, murine GPC3-his protein (murine, UniProt Q8CFZ4 25-558, limits assumed); assay: ELISA, murine GPC3-his coated; antibody 0.004 nM
T3 construct: Bought protein; also called mouse GPC3 protein; murine GPC3 protein; not shown: His tag

murine GPC3-his protein [11] = molecular target: T3, murine GPC3-his protein; assay: ELISA, murine GPC3-his coated; antibody 0.02 nM
Experimental: as §1

murine GPC3-his protein [12] = molecular target: T3, murine GPC3-his protein; assay: ELISA, murine GPC3-his coated; antibody 2.67 nM
Experimental: as §1

murine GPC3-his protein [13] = molecular target: T3, murine GPC3-his protein; assay: ELISA, murine GPC3-his coated; antibody 66.66 nM
Experimental: as §1

monkey GPC3-His protein [14] = molecular target: T1, monkey GPC3-His protein; assay: ELISA, monkey GPC3-His coated; antibody 0.11 nM
Experimental: as §1

murine GPC3-his protein [15] = molecular target: T3, murine GPC3-his protein; assay: ELISA, murine GPC3-his coated; antibody 0.53 nM
Experimental: as §1

monkey GPC3-His protein [16] = molecular target: T1, monkey GPC3-His protein; assay: ELISA, monkey GPC3-His coated; antibody 2.67 nM
Experimental: as §1

monkey GPC3-His protein [17] = molecular target: T1, monkey GPC3-His protein; assay: ELISA, monkey GPC3-His coated; antibody 0.0008 nM
Experimental: as §1

monkey GPC3-His protein [18] = molecular target: T1, monkey GPC3-His protein; assay: ELISA, monkey GPC3-His coated; antibody 0.004 nM
Experimental: as §1

monkey GPC3-His protein [19] = molecular target: T1, monkey GPC3-His protein; assay: ELISA, monkey GPC3-His coated; antibody 66.66 nM
Experimental: as §1

murine GPC3-his protein [20] = molecular target: T3, murine GPC3-his protein; assay: ELISA, murine GPC3-his coated; antibody 0.0008 nM
Experimental: as §1

monkey GPC3-His protein [21] = molecular target: T1, monkey GPC3-His protein; assay: ELISA, monkey GPC3-His coated; antibody 0.53 nM
Experimental: as §1

murine GPC3-his protein [22] = molecular target: T3, murine GPC3-his protein; assay: ELISA, murine GPC3-his coated; antibody 0.11 nM
Experimental: as §1

monkey GPC3-His protein [23] = molecular target: T1, monkey GPC3-His protein; assay: ELISA, monkey GPC3-His coated; antibody 0.02 nM
Experimental: as §1

murine GPC3-his protein [24] = molecular target: T3, murine GPC3-his protein; assay: ELISA, murine GPC3-his coated; antibody 13.33 nM
Experimental: as §1

T3 sequence (Q8CFZ4 25-558 limits assumed): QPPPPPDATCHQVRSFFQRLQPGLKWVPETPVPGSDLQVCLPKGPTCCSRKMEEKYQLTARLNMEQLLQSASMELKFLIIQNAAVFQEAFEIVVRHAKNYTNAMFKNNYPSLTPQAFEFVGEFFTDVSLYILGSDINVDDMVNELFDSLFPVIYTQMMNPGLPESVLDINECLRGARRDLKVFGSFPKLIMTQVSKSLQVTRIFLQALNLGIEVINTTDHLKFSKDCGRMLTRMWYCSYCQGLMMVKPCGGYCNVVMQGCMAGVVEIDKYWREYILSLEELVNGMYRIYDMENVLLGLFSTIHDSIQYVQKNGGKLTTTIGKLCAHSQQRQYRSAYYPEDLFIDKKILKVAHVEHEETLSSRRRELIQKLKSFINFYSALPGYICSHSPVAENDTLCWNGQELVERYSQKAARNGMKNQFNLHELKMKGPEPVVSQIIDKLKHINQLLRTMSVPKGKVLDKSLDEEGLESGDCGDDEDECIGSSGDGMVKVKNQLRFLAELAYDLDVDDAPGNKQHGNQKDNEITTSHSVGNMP

B4: hAb001H2L1a (antibody, human IgG1, V domains shown)
VH: EVQLVESGGGLVQPGGSLRLSCAASGFSFNTNAMNWVRQAPGKGLEWVGRIRSKSNNYATYYADSVKDRFTISRDDSKSSLYLQMNSLKTEDTAVYYCVRDGYYVLFAYWGQGTLVTVSS
VL: DIVMTQTPLSLPVTPGEPASISCRFSQSIVNSDGNTYLEWFLQKPGQSPQLLIYKVSNRFSGVPDRFSGSGSGTDFTLKISRVEAEDVGVYYCFQGSHVPFTFGQGTKLEIK
notes: Humanized F2.169.2, H2+L1a
OD450 nm (monkey GPC3-His protein [9]): 2.34
OD450 nm (murine GPC3-his protein [10]): 0.191
OD450 nm (murine GPC3-his protein [11]): 0.664
OD450 nm (murine GPC3-his protein [12]): 2.35
OD450 nm (murine GPC3-his protein [13]): 2.48
OD450 nm (monkey GPC3-His protein [14]): 1.13
OD450 nm (murine GPC3-his protein [15]): 2.19
OD450 nm (monkey GPC3-His protein [16]): 2.25
OD450 nm (monkey GPC3-His protein [17]): 0.063
OD450 nm (monkey GPC3-His protein [18]): 0.094
OD450 nm (monkey GPC3-His protein [19]): 2.22
OD450 nm (murine GPC3-his protein [20]): 0.094
OD450 nm (monkey GPC3-His protein [21]): 2.02
OD450 nm (murine GPC3-his protein [22]): 1.59
OD450 nm (monkey GPC3-His protein [23]): 0.34
OD450 nm (murine GPC3-his protein [24]): 2.41

B5: hAb007LH1L1d (antibody, human IgG1, V domains shown)
VH: EVQLVQSGAEVKKPGSSVKVSCKASGYTFSDYEMHWVRQAPGQGLEWMGTIDPETGNTAYNQKFKGRVTITADKSTSTAYMELSSLRSEDTAVYYCTRPYSLTYWGQGTLVTVSS
VL: B4 VL with F25S, I29F, N31H, D33N, G34S, N35D, E39Q, F41Y, F101Y
notes: Humanized F3.81.19, H1+L1d
OD450 nm (monkey GPC3-His protein [1]): 0.09
OD450 nm (monkey GPC3-His protein [2]): 0.053
OD450 nm (monkey GPC3-His protein [3]): 1.25
OD450 nm (monkey GPC3-His protein [4]): 0.235
OD450 nm (monkey GPC3-His protein [5]): 0.078
OD450 nm (monkey GPC3-His protein [6]): 0.752
OD450 nm (monkey GPC3-His protein [7]): 1.3
EC50 (GPC3 on HepG2 cells): 4.39 nM
Max MFI (GPC3 on HepG2 cells): 3830
OD450 nm (monkey GPC3-His protein [8]): 1.2

B7: hAb001H2L1b (antibody, human IgG1, V domains shown)
VH: B4 VH
VL: B4 VL with D33N, G34A
notes: Humanized F2.169.2, H2+L1b
OD450 nm (monkey GPC3-His protein [9]): 2.47
OD450 nm (murine GPC3-his protein [10]): 0.407
OD450 nm (murine GPC3-his protein [11]): 1.09
OD450 nm (murine GPC3-his protein [12]): 2.44
OD450 nm (murine GPC3-his protein [13]): 2.64
OD450 nm (monkey GPC3-His protein [14]): 1.93
OD450 nm (murine GPC3-his protein [15]): 2.38
OD450 nm (monkey GPC3-His protein [16]): 2.45
OD450 nm (monkey GPC3-His protein [17]): 0.143
OD450 nm (monkey GPC3-His protein [18]): 0.317
OD450 nm (monkey GPC3-His protein [19]): 2.58
OD450 nm (murine GPC3-his protein [20]): 0.199
OD450 nm (monkey GPC3-His protein [21]): 2.54
OD450 nm (murine GPC3-his protein [22]): 2.06
OD450 nm (monkey GPC3-His protein [23]): 0.865
OD450 nm (murine GPC3-his protein [24]): 2.58

B8: hAb007LH1L1e (antibody, human IgG1, V domains shown)
VH: B5 VH
VL: B4 VL with F25S, I29F, N31H, D33N, G34V, N35D, E39Q, F41Y, F101Y
notes: Humanized F3.81.19, H1+L1e
OD450 nm (monkey GPC3-His protein [1]): 0.14
OD450 nm (monkey GPC3-His protein [2]): 0.043
OD450 nm (monkey GPC3-His protein [3]): 1.14
OD450 nm (monkey GPC3-His protein [4]): 0.148
OD450 nm (monkey GPC3-His protein [5]): 0.148
OD450 nm (monkey GPC3-His protein [6]): 0.399
OD450 nm (monkey GPC3-His protein [7]): 1.17
EC50 (GPC3 on HepG2 cells): 10.1 nM
Max MFI (GPC3 on HepG2 cells): 2910
OD450 nm (monkey GPC3-His protein [8]): 0.848

Further binders by falling EC50 (GPC3 on HepG2 cells), results first:

OD450 nm (monkey GPC3-His protein [1]): 0.103
OD450 nm (monkey GPC3-His protein [2]): 0.05
OD450 nm (monkey GPC3-His protein [3]): 1.25
OD450 nm (monkey GPC3-His protein [4]): 0.268
OD450 nm (monkey GPC3-His protein [5]): 0.069
OD450 nm (monkey GPC3-His protein [6]): 0.744
OD450 nm (monkey GPC3-His protein [7]): 1.26
EC50 (GPC3 on HepG2 cells): 3.67 nM
Max MFI (GPC3 on HepG2 cells): 3770
OD450 nm (monkey GPC3-His protein [8]): 1.3
B2: hAb007LH1L1c (antibody, human IgG1, V domains shown)
VH: B5 VH
VL: B4 VL with F25S, I29F, N31H, D33N, G34A, N35D, E39Q, F41Y, F101Y
notes: Humanized F3.81.19, H1+L1c

OD450 nm (monkey GPC3-His protein [1]): 0.24
OD450 nm (monkey GPC3-His protein [2]): 0.066
OD450 nm (monkey GPC3-His protein [3]): 1.26
OD450 nm (monkey GPC3-His protein [4]): 0.67
OD450 nm (monkey GPC3-His protein [5]): 0.114
OD450 nm (monkey GPC3-His protein [6]): 1.14
OD450 nm (monkey GPC3-His protein [7]): 1.22
EC50 (GPC3 on HepG2 cells): 1.01 nM
Max MFI (GPC3 on HepG2 cells): 2780
OD450 nm (monkey GPC3-His protein [8]): 1.07
B6: hAb006LH3L1e (antibody, human IgG1, V domains shown)
VH: B5 VH with S30T, M34I, T50A, E54K, K65M, I70L, P99Y, Y100F, L102F, T103A
VL: B4 VL with F25S, S28T, I29F, N31H, D33N, G34V, E39Q, F41Y, F101Y
notes: Humanized F3.38.7, H3+L1e

OD450 nm (monkey GPC3-His protein [1]): 0.308
OD450 nm (monkey GPC3-His protein [2]): 0.068
OD450 nm (monkey GPC3-His protein [3]): 1.3
OD450 nm (monkey GPC3-His protein [4]): 0.719
OD450 nm (monkey GPC3-His protein [5]): 0.121
OD450 nm (monkey GPC3-His protein [6]): 1.1
OD450 nm (monkey GPC3-His protein [7]): 1.29
EC50 (GPC3 on HepG2 cells): 0.772 nM
Max MFI (GPC3 on HepG2 cells): 3500
OD450 nm (monkey GPC3-His protein [8]): 1.28
B3: hAb006LH3L1d (antibody, human IgG1, V domains shown)
VH: B5 VH with S30T, M34I, T50A, E54K, K65M, I70L, P99Y, Y100F, L102F, T103A
VL: B4 VL with F25S, S28T, I29F, N31H, D33N, G34S, E39Q, F41Y, F101Y
notes: Humanized F3.38.7, H3+L1d

OD450 nm (monkey GPC3-His protein [1]): 0.332
OD450 nm (monkey GPC3-His protein [2]): 0.071
OD450 nm (monkey GPC3-His protein [3]): 1.26
OD450 nm (monkey GPC3-His protein [4]): 0.876
OD450 nm (monkey GPC3-His protein [5]): 0.122
OD450 nm (monkey GPC3-His protein [6]): 1.24
OD450 nm (monkey GPC3-His protein [7]): 1.33
EC50 (GPC3 on HepG2 cells): 0.417 nM
Max MFI (GPC3 on HepG2 cells): 3520
OD450 nm (monkey GPC3-His protein [8]): 1.32
B1: hAb006LH3L1c (antibody, human IgG1, V domains shown)
VH: B5 VH with S30T, M34I, T50A, E54K, K65M, I70L, P99Y, Y100F, L102F, T103A
VL: B4 VL with F25S, S28T, I29F, N31H, D33N, G34R, E39Q, F41Y, F101Y
notes: Humanized F3.38.7, H3+L1c
